# Results: IntAct's records for PubMed 19737519
# B1: Ribosome assembly protein 4 (Saccharomyces cerevisiae), P25382 (parent)
# chain: MSTLIPPPSKKQKKEAQLPREVAIIPKDLPNVSIKFQALDTGDNVGGALRVPGAISEKQLEELLNQLNGTSDDPVPYTFSCTIQGKKASDPVKTIDITDNLYSSLIKPGYNSTEDQITLLYTPRAVFKVKPVTRSSSAIAGHGSTILCSAFAPHTSSRMVTGAGDNTARIWDCDTQTPMHTLKGHYNWVLCVSWSPDGEVIATGSMDNTIRLWDPKSGQCLGDALRGHSKWITSLSWEPIHLVKPGSKPRLASSSKDGTIKIWDTVSRVCQYTMSGHTNSVSCVKWGGQGLLYSGSHDRTVRVWDINSQGRCINILKSHAHWVNHLSLSTDYALRIGAFDHTGKKPSTPEEAQKKALENYEKICKKNGNSEEMMVTASDDYTMFLWNPLKSTKPIARMTGHQKLVNHVAFSPDGRYIVSASFDNSIKLWDGRDGKFISTFRGHVASVYQVAWSSDCRLLVSCSKDTTLKVWDVRTRKLSVDLPGHKDEVYTVDWSVDGKRVCSGGKDKMVRLWTH
# Variants of: B1
# Conditions: with mdn1_yeast MDN1, Q12019
# Chain of mdn1_yeast MDN1, Q12019 (Q12019 whole entry): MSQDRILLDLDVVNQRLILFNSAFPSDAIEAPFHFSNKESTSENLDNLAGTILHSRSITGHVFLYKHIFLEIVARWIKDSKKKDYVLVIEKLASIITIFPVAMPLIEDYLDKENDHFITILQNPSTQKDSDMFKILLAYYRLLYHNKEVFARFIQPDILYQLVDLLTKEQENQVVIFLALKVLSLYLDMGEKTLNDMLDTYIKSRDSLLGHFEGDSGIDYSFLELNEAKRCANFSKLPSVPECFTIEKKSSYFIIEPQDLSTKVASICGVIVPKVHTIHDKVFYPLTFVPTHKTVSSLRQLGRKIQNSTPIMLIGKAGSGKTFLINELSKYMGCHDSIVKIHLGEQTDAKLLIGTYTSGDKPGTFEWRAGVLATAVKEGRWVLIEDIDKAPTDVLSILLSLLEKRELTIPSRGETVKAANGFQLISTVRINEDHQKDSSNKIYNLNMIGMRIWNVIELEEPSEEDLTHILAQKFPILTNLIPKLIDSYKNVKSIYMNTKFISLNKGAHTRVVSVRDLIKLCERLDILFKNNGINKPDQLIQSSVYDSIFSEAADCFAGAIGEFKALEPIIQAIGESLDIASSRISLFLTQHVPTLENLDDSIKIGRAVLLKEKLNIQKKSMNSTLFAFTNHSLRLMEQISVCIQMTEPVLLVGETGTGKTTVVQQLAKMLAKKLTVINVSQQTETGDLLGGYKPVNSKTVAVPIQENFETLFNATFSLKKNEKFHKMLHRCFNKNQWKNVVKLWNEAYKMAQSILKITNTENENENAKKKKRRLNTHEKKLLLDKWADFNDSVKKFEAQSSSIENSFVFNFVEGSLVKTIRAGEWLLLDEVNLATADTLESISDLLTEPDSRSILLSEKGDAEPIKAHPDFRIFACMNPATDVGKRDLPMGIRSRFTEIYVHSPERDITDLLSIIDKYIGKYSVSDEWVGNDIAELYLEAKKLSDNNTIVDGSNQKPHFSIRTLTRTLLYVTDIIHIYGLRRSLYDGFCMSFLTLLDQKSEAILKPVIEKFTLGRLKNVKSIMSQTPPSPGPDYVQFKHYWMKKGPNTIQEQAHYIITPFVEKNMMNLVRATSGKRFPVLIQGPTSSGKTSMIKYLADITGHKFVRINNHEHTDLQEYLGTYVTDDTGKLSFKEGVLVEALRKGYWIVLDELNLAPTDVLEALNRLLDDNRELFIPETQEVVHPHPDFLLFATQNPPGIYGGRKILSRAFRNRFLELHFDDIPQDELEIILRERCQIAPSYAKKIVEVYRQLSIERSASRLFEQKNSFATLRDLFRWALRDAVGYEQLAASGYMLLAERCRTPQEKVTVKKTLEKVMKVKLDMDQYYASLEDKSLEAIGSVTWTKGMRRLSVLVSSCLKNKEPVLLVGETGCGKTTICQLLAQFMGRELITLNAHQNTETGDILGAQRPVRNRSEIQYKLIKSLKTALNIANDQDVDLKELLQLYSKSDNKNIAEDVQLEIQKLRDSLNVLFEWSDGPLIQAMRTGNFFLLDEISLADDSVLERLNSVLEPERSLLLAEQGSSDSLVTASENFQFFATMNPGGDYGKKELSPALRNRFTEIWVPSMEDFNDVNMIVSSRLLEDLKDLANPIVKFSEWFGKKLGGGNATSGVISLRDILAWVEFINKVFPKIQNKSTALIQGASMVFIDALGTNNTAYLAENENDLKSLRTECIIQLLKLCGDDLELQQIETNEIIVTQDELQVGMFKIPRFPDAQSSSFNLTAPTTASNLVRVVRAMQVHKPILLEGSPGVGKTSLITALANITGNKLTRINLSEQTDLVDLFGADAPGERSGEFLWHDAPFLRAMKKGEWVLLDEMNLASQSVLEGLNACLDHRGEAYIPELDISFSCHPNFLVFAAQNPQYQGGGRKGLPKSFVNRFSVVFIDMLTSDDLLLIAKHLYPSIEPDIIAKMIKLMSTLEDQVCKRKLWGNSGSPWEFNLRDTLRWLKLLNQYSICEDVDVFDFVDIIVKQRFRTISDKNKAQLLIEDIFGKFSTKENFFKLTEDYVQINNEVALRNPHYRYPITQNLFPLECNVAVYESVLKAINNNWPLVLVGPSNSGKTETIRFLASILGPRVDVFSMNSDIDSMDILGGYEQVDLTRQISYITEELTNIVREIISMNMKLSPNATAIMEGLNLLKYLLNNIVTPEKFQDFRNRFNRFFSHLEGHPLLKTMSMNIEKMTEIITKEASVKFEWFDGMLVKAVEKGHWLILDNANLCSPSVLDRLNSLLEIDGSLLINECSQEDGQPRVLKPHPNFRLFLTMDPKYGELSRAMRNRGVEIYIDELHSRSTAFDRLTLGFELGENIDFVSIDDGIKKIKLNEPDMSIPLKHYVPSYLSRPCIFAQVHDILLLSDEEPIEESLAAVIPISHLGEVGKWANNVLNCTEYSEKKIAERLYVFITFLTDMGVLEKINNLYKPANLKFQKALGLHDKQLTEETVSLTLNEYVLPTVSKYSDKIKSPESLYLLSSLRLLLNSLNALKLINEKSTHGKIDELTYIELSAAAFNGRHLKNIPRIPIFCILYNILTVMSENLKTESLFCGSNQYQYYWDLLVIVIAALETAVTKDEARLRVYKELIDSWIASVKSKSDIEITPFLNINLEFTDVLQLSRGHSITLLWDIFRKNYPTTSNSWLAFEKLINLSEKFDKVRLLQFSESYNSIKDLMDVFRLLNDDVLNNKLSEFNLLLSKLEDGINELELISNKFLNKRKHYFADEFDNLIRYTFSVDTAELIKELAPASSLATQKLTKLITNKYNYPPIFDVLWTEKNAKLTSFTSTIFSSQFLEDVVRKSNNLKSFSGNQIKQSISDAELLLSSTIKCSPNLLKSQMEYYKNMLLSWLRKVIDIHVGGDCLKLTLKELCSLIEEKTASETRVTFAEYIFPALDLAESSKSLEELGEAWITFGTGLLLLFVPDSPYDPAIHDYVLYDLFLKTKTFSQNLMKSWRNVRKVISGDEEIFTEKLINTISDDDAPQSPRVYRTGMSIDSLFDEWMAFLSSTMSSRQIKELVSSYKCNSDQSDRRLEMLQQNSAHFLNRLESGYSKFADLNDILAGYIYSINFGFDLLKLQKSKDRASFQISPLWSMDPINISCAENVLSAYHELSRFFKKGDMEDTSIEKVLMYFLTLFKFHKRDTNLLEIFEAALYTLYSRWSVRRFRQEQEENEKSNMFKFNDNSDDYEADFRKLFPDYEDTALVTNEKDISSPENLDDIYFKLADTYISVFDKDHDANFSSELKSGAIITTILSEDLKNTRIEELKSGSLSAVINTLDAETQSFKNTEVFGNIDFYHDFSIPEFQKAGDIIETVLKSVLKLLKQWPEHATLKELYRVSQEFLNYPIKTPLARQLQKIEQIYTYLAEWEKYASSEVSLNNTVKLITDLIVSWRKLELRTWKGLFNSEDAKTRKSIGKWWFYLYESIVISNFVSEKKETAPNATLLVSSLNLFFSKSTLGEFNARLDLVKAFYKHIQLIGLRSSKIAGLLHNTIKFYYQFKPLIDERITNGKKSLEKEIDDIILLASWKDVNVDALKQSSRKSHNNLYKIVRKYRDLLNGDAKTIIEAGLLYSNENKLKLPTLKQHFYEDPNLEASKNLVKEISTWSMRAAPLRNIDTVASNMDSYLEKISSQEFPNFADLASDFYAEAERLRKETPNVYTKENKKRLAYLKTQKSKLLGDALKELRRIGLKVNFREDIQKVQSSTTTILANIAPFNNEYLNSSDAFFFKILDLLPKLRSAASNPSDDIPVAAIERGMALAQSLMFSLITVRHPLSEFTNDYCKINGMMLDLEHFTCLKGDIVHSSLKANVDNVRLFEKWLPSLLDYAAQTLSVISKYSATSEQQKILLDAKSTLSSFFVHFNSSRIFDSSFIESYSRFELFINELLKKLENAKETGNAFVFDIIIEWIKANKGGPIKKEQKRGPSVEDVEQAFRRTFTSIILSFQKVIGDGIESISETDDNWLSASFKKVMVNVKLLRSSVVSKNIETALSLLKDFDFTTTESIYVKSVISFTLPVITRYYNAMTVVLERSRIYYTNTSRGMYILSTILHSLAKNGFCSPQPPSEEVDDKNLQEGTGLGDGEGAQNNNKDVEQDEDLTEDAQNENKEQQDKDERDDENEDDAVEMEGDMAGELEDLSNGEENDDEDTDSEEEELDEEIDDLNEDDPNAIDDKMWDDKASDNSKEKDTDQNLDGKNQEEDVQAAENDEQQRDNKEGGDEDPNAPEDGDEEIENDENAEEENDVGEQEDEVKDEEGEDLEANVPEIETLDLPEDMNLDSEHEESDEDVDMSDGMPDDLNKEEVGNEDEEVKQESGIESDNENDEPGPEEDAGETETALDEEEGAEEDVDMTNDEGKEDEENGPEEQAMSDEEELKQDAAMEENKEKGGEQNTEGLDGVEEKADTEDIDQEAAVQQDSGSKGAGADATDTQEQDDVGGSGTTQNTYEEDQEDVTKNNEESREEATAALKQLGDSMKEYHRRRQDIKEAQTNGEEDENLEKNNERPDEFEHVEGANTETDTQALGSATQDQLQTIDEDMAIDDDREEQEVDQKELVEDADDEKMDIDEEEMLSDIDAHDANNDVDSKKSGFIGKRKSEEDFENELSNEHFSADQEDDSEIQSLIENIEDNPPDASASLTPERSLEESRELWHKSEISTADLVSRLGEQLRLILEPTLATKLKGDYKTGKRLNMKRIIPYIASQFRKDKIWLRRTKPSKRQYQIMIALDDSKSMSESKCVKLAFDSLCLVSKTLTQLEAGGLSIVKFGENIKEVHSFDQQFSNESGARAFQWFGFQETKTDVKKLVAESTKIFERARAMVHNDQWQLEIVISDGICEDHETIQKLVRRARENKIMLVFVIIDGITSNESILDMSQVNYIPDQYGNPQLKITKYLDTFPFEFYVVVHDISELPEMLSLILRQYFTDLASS
row,Variant,effect of a mutation on the interaction
1,MSTLIPPPSKKQKKEAQLPREVAIIPKDLPNVSIKFQALDTGDNVGGALRVPGAISEKQLEELLNQLNGTSDDPVPYTFSCTIQGKKASDPVKTIDITDNLYSSLIKPGYNSTADQITLLYTPRAVFKVKPVTRSSSAIAGHGSTILCSAFAPHTSSRMVTGAGDNTARIWDCDTQTPMHTLKGHYNWVLCVSWSPDGEVIATGSMDNTIRLWDPKSGQCLGDALRGHSKWITSLSWEPIHLVKPGSKPRLASSSKDGTIKIWDTVSRVCQYTMSGHTNSVSCVKWGGQGLLYSGSHDRTVRVWDINSQGRCINILKSHAHWVNHLSLSTDYALRIGAFDHTGKKPSTPEEAQKKALENYEKICKKNGNSEEMMVTASDDYTMFLWNPLKSTKPIARMTGHQKLVNHVAFSPDGRYIVSASFDNSIKLWDGRDGKFISTFRGHVASVYQVAWSSDCRLLVSCSKDTTLKVWDVRTRKLSVDLPGHKDEVYTVDWSVDGKRVCSGGKDKMVRLWTH [E114A],decreasing interaction
2,MSTLIPPPSKKQKKEAQLPREVAIIPKDLPNVSIKFQALDTGDNVGGALRVPGAISEKQLEELLNQLNGTSDDPVPYTFSCTIQGKKASDPVKTIDITDNLYSSLIKPGYNSTDDQITLLYTPRAVFKVKPVTRSSSAIAGHGSTILCSAFAPHTSSRMVTGAGDNTARIWDCDTQTPMHTLKGHYNWVLCVSWSPDGEVIATGSMDNTIRLWDPKSGQCLGDALRGHSKWITSLSWEPIHLVKPGSKPRLASSSKDGTIKIWDTVSRVCQYTMSGHTNSVSCVKWGGQGLLYSGSHDRTVRVWDINSQGRCINILKSHAHWVNHLSLSTDYALRIGAFDHTGKKPSTPEEAQKKALENYEKICKKNGNSEEMMVTASDDYTMFLWNPLKSTKPIARMTGHQKLVNHVAFSPDGRYIVSASFDNSIKLWDGRDGKFISTFRGHVASVYQVAWSSDCRLLVSCSKDTTLKVWDVRTRKLSVDLPGHKDEVYTVDWSVDGKRVCSGGKDKMVRLWTH [E114D],decreasing interaction
